The results in this text go back to patent US20250326842A1 (BEIGENE SWITZERLAND, published 2025).

Experiment [1] addresses T1, human PVRIG expressed on cells (human, UniProt Q6DKI7 41-326).
T1 construct: Jurkat cells engineered to express human PVRIG; also called hPVRIG-Jurkat; native human PVRIG
T1 sequence: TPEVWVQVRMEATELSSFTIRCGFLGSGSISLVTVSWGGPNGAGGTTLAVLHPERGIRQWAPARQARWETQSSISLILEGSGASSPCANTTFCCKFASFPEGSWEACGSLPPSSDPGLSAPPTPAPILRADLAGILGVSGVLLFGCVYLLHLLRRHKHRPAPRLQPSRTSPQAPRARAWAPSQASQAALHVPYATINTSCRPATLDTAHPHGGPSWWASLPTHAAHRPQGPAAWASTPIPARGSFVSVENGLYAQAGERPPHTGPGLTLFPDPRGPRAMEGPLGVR
The experiment in a line: flow cytometry on Jurkat cells expressing human PVRIG, anti-hFc-AF647 detection. The method, then: To evaluate the binding activity of anti-PVRIG antibodies to native PVRIG on living cells, Jurkat cells were engineered to express human PVRIG. Jurkat cells expressing human PVRIG were seeded in 96 well plates, and were incubated with serially diluted anti-PVRIG antibodies. […] EC50 values for dose dependent binding to human native PVRIG were determined by fitting the dose response data to the four-parameter logistic model with GraphPad Prism™.

In experiment [2] the target is T2, human PVRIG recombinant protein (human, UniProt Q6DKI7 41-171).
T2 construct: also called human PVRIG protein; recombinant human antigen PVRIG
T2 sequence: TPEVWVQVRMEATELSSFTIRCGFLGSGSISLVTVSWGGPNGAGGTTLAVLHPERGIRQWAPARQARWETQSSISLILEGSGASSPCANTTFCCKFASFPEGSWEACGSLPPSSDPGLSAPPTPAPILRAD
As to the kind of experiment: SPR, antibody captured via anti-human Fc, human PVRIG analyte. The text has this: For affinity determination, antibodies were captured by anti-human Fe antibodies, and used in the affinity assay based on surface plasmon resonance (SPR) technology. […] Rmax represents the maximal feasible SPR signal generated by an interaction between a ligand-analyte pair and is represented in response units (RU).

Experiment [3] addresses T3, hPVRIG-ECD-his (human, UniProt Q6DKI7 41-171).
T3 construct: Acrobiosystems PVG-H52H4; also called hPVRIG-His; human PVRIG-His; not shown: His tag
T3 sequence: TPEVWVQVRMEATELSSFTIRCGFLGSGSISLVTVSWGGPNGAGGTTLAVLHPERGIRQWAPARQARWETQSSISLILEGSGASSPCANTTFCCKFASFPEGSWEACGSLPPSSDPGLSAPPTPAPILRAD
The experiment in a line: blocking ELISA: hPVRIG-His coated, antibody mixed with PVRL2-biotin at 1 ug/mL; % inhibition of PVRL2 binding. (In general: In an ELISA, binding on a coated surface is turned into a signal by an enzyme label.)

The target in experiment [4] is T2, human PVRIG recombinant protein. The experiment in a line: SPR, antibody captured via anti-human Fc, human PVRIG analyte. The text has this: For affinity determination, antibodies were captured by anti-human Fc antibodies, and used in the affinity determination based on surface plasmon resonance (SPR) technology.
This is another data set of the same source. (SPR reads the build-up and loss of mass on a sensor chip optically.)

For experiment [5], the target named is T4, Cyno PVRIG expressed on HEK293 cells (cynomolgus monkey).
T4 construct: also called native Cyno PVRIG
T4 chain: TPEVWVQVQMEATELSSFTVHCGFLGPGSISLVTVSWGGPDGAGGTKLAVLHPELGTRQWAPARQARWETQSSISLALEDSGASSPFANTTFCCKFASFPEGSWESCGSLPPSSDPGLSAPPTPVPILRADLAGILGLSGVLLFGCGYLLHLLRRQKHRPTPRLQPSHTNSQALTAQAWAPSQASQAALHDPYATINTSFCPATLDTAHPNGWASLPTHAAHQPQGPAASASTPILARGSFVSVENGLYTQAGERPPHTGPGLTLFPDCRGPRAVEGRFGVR
As to the kind of experiment: flow cytometry on 293T cells expressing cyno PVRIG, anti-hFc-AF647 detection. A general note: In flow cytometry, cells or beads pass a laser one at a time.

For experiment [6], the target named is T1, human PVRIG expressed on cells. As to the kind of experiment: flow cytometry on Jurkat cells expressing human PVRIG, anti-hFc-AF647 detection. The method, then:
To evaluate the binding activity of anti-PVRIG antibodies to native human PVRIG on living cells, Jurkat cells were engineered to express human PVRIG. Jurkat cells expressing human PVRIG were seeded in 96 well plates, and were incubated with serially diluted anti-PVRIG antibodies. […] EC50 values for dose dependent binding to human native PVRIG were determined by fitting the dose response data to the four-parameter logistic model with GraphPad Prism™.
The source holds these as a separate data set.

For experiment [7], the target named is T3, hPVRIG-ECD-his. The experiment in a line: blocking ELISA: hPVRIG-His coated, antibody mixed with PVRL2-biotin at 1 ug/mL; % inhibition of PVRL2 binding. This is another data set of the same source.
The target in experiment [8] is T2, human PVRIG recombinant protein. As to the kind of experiment: ELISA, chimeric antibody on recombinant human PVRIG.
Experiment [9] deals with T1, human PVRIG expressed on cells. The experiment in a line: FACS on human PVRIG-expressing cells.
Experiment [10] has as its target T2, human PVRIG recombinant protein. As to the kind of experiment: SPR, antibody captured via anti-human Fc, human PVRIG analyte. The protocol: Chimeric anti-PVRIG antibodies were generated in human IgG1 format and characterized for binding kinetics by surface plasmon resonance (SPR) assays using BIAcore™ T-200 (GE Life Sciences). […] Then a serial dilution of human or Cyno PVRIG protein was flowed over the chip surface and changes in surface plasmon resonance signals were analyzed to calculate the association rates (kₒₙ) and dissociation rates (koff) by using the one-to-one Langmuir binding model (BIA Evaluation Software, GE Life Sciences). The equilibrium dissociation constant (KD) was calculated as the ratio koff/kₒₙ.
The source holds these as a separate data set.

The target of experiment [11] is T3, hPVRIG-ECD-his. As to the kind of experiment: competition ELISA, antibody against PVRL2 on coated human PVRIG.

Read-outs that look alike come from different tables or passages of the source.

B1: BGA121 (antibody, V domains shown)
VH: QVQLVQSGAEVKKPGASVKVSCKASGYTFTDYAMHWVRQAPGQSLEWMGVVLTHNDNTNYNQKFKARVTMTVDTSASTAYMELSSLRSEDTAVYYCAREVYYDFDDGNYFPMDYWGQGTLVTVSS
VL: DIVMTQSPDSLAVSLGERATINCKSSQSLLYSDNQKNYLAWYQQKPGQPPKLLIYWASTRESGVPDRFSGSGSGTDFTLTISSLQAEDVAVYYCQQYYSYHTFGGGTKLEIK
notes: Humanized BGA12
For orientation: EC50 (read off the curve) means the midpoint of the concentration-response curve. Low values mean an effect from little substance, high ones a need for much substance. By Kd is commonly meant the concentration at which binding is half-saturated. As usually defined, the koff is the first-order rate constant of dissociation. As usually defined, the kon is a measure of how fast the partners come together. Regarding B1, in [1], the half-maximal effective concentration (EC50 (read off the curve)) is roughly 0.007 µg/mL. Moreover, in [2], the dissociation constant (Kd) stood at 52.4 pM, the off-rate (koff) was 0.00122 s⁻¹ and the kon came to 2.33e+07 M⁻¹ s⁻¹. Further, the “IC50 (read off the curve)” value in [3] is roughly 0.6 µg/mL.

B2: BGA122 (antibody, V domains shown)
VH: QVQLVQSGAEVKKPGASVKVSCKASGYTFTDYAMHWVRQAPGQSLEWMGVVLTHNDNTNYNQKFKARVTMTVDTSASTAYMELSSLRSEDTAVYYCAREVYYDFDDGNYFPMDYWGQGTLVTVSS
VL: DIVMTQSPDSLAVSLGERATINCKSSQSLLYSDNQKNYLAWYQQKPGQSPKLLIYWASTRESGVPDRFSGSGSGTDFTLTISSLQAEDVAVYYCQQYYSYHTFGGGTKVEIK
notes: Humanized BGA12; also called BGA122-WT
In the case of B2, the concentration giving a half-maximal response (EC50 (read off the curve)) in experiment [1] was roughly 0.007 µg/mL. Further, in experiment [2], the equilibrium dissociation constant (Kd) came to 48.8 pM, the koff worked out at 0.00199 s⁻¹ and the kon amounted to 4.09e+07 M⁻¹ s⁻¹. Besides, in experiment [3], the “IC50 (read off the curve)” value is roughly 0.6 µg/mL.

B3: BGA502 (antibody, V domains shown)
VH: QVQLVQSGAEVKKPGASVKVSCKASGYSFTGYFLNWVRQAPGQGLEWIGRISPYQGDTFYNQKFKGRVTMTTDKSTSTAYMELRSLRSDDTAVYYCGRSGSFTLFYALDYWGQGTLVTVSS
VL: DIVMTQSPSSLAVSLGERATINCKSSQSLFHSGNQKNYLAWYQQKPGQSPKLLIYWASTRESGVPDRFSGSGSGTDFTLTISSLQAEDVAVYYCQQYYSYPITFGQGTKLEIK
notes: Humanized BGA50
Turning to B3, in experiment [4], the dissociation constant (Kd) is 103 pM, the koff is 0.000486 s⁻¹ and the on-rate (kon) is 4.71e+06 M⁻¹ s⁻¹. The “EC50 (read off the curve)” value in experiment [5] was roughly 0.007 µg/mL. The concentration for a half-maximal effect (EC50 (read off the curve)) in experiment [6] was roughly 0.01 µg/mL. In addition, in experiment [7], the “IC50 (read off the curve)” value was roughly 1 µg/mL.

B4: BGA503 (antibody, V domains shown)
VH: QVQLVQSGAEVKKPGASVKVSCKASGYSFTGYFLNWVRQAPGQGLEWIGRISPYQGDTFYNQKFKGRVTMTVDKSTSTAYMELRSLRSDDTAVYYCGRSGSFTLFYALDYWGQGTLVTVSS
VL: DIVMTQSPSSLAVSLGERATINCKSSQSLFHSGNQKNYLAWYQQKPGQSPKLLIYWASTRESGVPDRFSGSGSGTDFTLTISSLQAEDVAVYYCQQYYSYPITFGQGTKLEIK
notes: Humanized BGA50
As to B4, in [4], the Kd came out at 120 pM, the dissociation rate constant (koff) was determined as 0.000438 s⁻¹ and the on-rate (kon) worked out at 3.66e+06 M⁻¹ s⁻¹. Further, the half-maximal effective concentration (EC50 (read off the curve)) in experiment [5] was roughly 0.007 µg/mL. In addition, the concentration giving a half-maximal response (EC50 (read off the curve)) in experiment [6] is roughly 0.01 µg/mL. Besides, the “IC50 (read off the curve)” value in experiment [7] is roughly 0.8 µg/mL.

B5: BGA501 (antibody, V domains shown)
VH: QVQLVQSGAEVKKPGASVKVSCKASGYSFTGYFLNWVRQAPGQGLEWIGRISPYQGDTFYNQKFKGRVTMTTDKSTSTAYMELRSLRSDDTAVYYCGRSGSFTLFYAIDYWGQGTLVTVSS
VL: DIVMTQSPSSLAVSLGERATINCKSSQSLFHSGNQKNYLAWYQQKPGQSPKLLIYWASTRESGVPDRFSGSGSGTDFTLTISSLQAEDVAVYYCQQYYSYPITFGQGTKLEIK
notes: Humanized BGA50; also called BGA501-WT
Regarding B5, in experiment [4], the equilibrium dissociation constant (Kd) came out at 136 pM, the off-rate (koff) stood at 0.000436 s⁻¹ and the association rate constant (kon) amounted to 3.21e+06 M⁻¹ s⁻¹. Besides, the “EC50 (read off the curve)” value in [5] was roughly 0.01 µg/mL. The “EC50 (read off the curve)” value in experiment [6] was roughly 0.01 µg/mL. In experiment [7], the “IC50 (read off the curve)” value is roughly 1 µg/mL.

B6: BGA12 (antibody, V domains shown)
VH: QVQLQQSGPEVVRPGVSVKISCKGSGYTFTDYAMHWVKQSHGKSLEWIGVVLTHNDNTNYNQKFKAKATMTVDRSSSTAYMELARLTSEDSAIYYCAREVYYDFDDGNYFPMDYWGQGTSVTVSS
VL: DIVMSQSPSSLAVSVGEKVTMSCKSSQSLLYSDNQKNYLAWYQQKPGQSPKLLIYWASTRESGVPVRFTGSGSGTDFTLTISSVKAEDLAVYYCQQYYSYHTFGGGTKLEIK
The term EC50 denotes the concentration that produces a half-maximal response. By IC50 is commonly meant the midpoint of a concentration-inhibition curve. A lower IC50 goes with greater potency. Take B6: in experiment [1], the “EC50 (read off the curve)” value was roughly 0.007 µg/mL. In addition, in [8], the concentration giving a half-maximal response (EC50) is 126 pM. For the same molecule, in experiment [9], the EC50 was determined as 50 pM and the “binding Emax (MFI)” value was determined as 1180 MFI. For the same molecule, in experiment [2], the dissociation constant (Kd) amounted to 68.4 pM, the off-rate (koff) stood at 0.00157 s⁻¹ and the on-rate (kon) came out at 2.29e+07 M⁻¹ s⁻¹. Moreover, the “IC50 (read off the curve)” value in [3] was roughly 0.6 µg/mL. In [10], the Kd was determined as 68.4 pM, the koff turned out to be 0.00157 s⁻¹ and the on-rate constant (kon) was 2.29e+07 M⁻¹ s⁻¹. For the same molecule, in experiment [11], the IC50 came out at 150 pM and the “PVRIG/PVRL2 blocking Emax (% Inhibition)” value was 91.9%.

B7: BGA50 (antibody, V domains shown)
VH: EVQLQQSGPEPVKPGASVKISCKASGYSFTGYFLNWVKQSHGKSLEWIGRISPYNGDTFYNQKFKGKATLTVDKSSSTAHMELLSLTSEDSAVYYCGRSGSFTLFYAMDYWGQGTSVTVSS
VL: DIVMSQSPSSLAVSVGENITMTCKSSQSLFHSGNQKNYLAWYQQKPGQSPKLLIYWASTRESGVPDRFTGSGSETDFTLTISSVKAEDLAVYFCQQYYSYPITFGAGTKLELK
notes: also called BGA50-WT
Turning to B7, the 50% effective concentration (EC50) in [8] was 105 pM. Besides, in experiment [4], the dissociation constant (Kd) was found to be 90.7 pM, the dissociation rate constant (koff) is 0.000519 s⁻¹ and the kon was 5.72e+06 M⁻¹ s⁻¹. For the same molecule, in experiment [9], the midpoint of the response, the EC50, lay at 273 pM and the “binding Emax (MFI)” value was 2610 MFI. Also, the “EC50 (read off the curve)” value in experiment [5] was roughly 0.02 µg/mL. In experiment [6], the “EC50 (read off the curve)” value is roughly 0.03 µg/mL. Further, in [10], the Kd came out at 147 pM, the off-rate constant (koff) came out at 0.000652 s⁻¹ and the on-rate constant (kon) turned out to be 4.45e+06 M⁻¹ s⁻¹. Also, in experiment [7], the “IC50 (read off the curve)” value was roughly 1 µg/mL. Further, in experiment [11], the IC50 turned out to be 1090 pM and the “PVRIG/PVRL2 blocking Emax (% Inhibition)” value was 95.3%.
